Reference: PMC2714321, “DNA binding kinetics of two response regulators, PlnC and PlnD, from the bacteriocin regulon of Lactobacillus plantarum C11”

Legend:
Conditions in all cases: protein: native; tags: N-terminal FLAG; chain copies: 2; label: biotin on forward strand; blunt
[1] = molecular target: T1, f-PlnD (Lactobacillus plantarum C11, UniProt Q48830 1-247); experiment: SPR; site 1 (KD1), heterogeneous ligand model; SPR (Biacore 3000, SA chip): 20 mM Tris-HCl pH 8.0, 100 mM NaCl, 5 mM MgCl2, 1 mM EDTA, 0.025% Triton X-100, 25°C; signals corrected by subtraction of control DNA (S8/rc) reference cell, no outcome reported for it
T1 sequence: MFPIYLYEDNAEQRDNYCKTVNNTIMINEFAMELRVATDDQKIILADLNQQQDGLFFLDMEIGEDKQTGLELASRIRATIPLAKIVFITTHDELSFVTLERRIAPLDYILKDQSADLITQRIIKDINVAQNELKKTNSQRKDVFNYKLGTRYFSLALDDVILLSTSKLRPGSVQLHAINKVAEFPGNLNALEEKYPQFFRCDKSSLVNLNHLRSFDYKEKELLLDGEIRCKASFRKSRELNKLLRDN

[2] = molecular target: T2, f-PlnC (Lactobacillus plantarum C11, UniProt Q48829 1-247); experiment: SPR; site 1 (KD1), ka fitted locally; SPR (Biacore 3000, SA chip): 20 mM Tris-HCl pH 8.0, 100 mM NaCl, 5 mM MgCl2, 1 mM EDTA, 0.025% Triton X-100, 25°C; signals corrected by subtraction of control DNA (S8/rc) reference cell, no outcome reported for it
T2 sequence: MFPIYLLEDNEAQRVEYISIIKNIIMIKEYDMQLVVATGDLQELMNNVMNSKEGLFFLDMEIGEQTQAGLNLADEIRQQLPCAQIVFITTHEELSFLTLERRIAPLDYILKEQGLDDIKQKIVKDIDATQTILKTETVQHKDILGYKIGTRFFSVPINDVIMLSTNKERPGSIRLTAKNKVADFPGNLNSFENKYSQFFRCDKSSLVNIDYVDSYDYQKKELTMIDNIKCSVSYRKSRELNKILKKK

[3] = molecular target: T2, f-PlnC; experiment: SPR; site 1 (KD1), heterogeneous ligand model; SPR (Biacore 3000, SA chip): 20 mM Tris-HCl pH 8.0, 100 mM NaCl, 5 mM MgCl2, 1 mM EDTA, 0.025% Triton X-100, 25°C; signals corrected by subtraction of control DNA (S8/rc) reference cell, no outcome reported for it
[4] = molecular target: T2, f-PlnC; experiment: SPR; single site, Langmuir 1:1 model; SPR (Biacore 3000, SA chip): 20 mM Tris-HCl pH 8.0, 100 mM NaCl, 5 mM MgCl2, 1 mM EDTA, 0.025% Triton X-100, 25°C; signals corrected by subtraction of control DNA (S8/rc) reference cell, no outcome reported for it
[5] = molecular target: T2, f-PlnC; experiment: SPR; site 1 (KD1), heterogeneous ligand model; Discussion gives 1e-7 range; SPR (Biacore 3000, SA chip): 20 mM Tris-HCl pH 8.0, 100 mM NaCl, 5 mM MgCl2, 1 mM EDTA, 0.025% Triton X-100, 25°C; signals corrected by subtraction of control DNA (S8/rc) reference cell, no outcome reported for it

B1: PplnG (dsDNA)
DNA 1: GCCTGATGAGGACATTTATCATAAAATTATGTACGTTAATAGATAGTTGG
DNA 2: CCAACTATCTATTAACGTACATAATTTTATGATAAATGTCCTCATCAGGC
Kd [1]: 14000 nM | Kd [2]: 170 nM

B2: PplnM (dsDNA)
DNA 1: TGAATTATTGTACGATAATATCTAAAAATATTACGTTTATAAAAATATCG
DNA 2: CGATATTTTTATAAACGTAATATTTTTAGATATTATCGTACAATAATTCA
Kd [1]: 560 nM | Kd [3]: 380 nM

B3: PplnAΔL (dsDNA)
DNA 1: CATGGTGATTTTAAAATTTATTTAAAAAATGTACGTTAATAGAAATAATT
DNA 2: AATTATTTCTATTAACGTACATTTTTTAAATAAATTTTAAAATCACCATG
Kd [4]: 300 nM

B4: PplnJ (dsDNA)
DNA 1: ACTTTCAAGTTACGTTAAATCGATTAAATAGTACGATAACAAATTTAAAA
DNA 2: TTTTAAATTTGTTATCGTACTATTTAATCGATTTAACGTAACTTGAAAGT
Kd [1]: 12000 nM

B5: PplnA (dsDNA)
DNA 1: CATGGTGATTCACGTTTAAATTTAAAAAATGTACGTTAATAGAAATAATT
DNA 2: AATTATTTCTATTAACGTACATTTTTTAAATTTAAACGTGAATCACCATG
Kd [5]: 1500 nM | Kd [1]: 1500 nM

B6: PplnE (dsDNA)
DNA 1: ATTGGTATTTGACGTTAAGAGAACGTTTTTTTACTTTTATAATTTTTTCA
DNA 2: TGAAAAAATTATAAAAGTAAAAAAACGTTCTCTTAACGTCAAATACCAAT
Kd [3]: 210 nM
